Data from US20050255113A1, “Methods and compositions for inhibiting polypeptide accumulation associated with neurological disorders” (New York State Department of Health and Abgenix, Inc., priority 1999, published 2005).

Experiments:
[1] = biological target: T1, biotinylated HD-peptide (HD peptide (1-17), N-terminal huntingtin) (Homo sapiens, UniProt P42858); test: Kinetic binding analysis by surface plasmon resonance (BIAcore 2000); conditions: corresponding to the Kd
T1 construct: host or cells: chemical peptide synthesis
Description: A range of concentration (60 to 100 nM) of anti-huntingtin intrabody C4 sFv was used to measure the association rate (kon) on 50 RU of biotinylated-HD peptide bound to a streptavidin sensor chip.
The Kd of purified scFv clone C4 was determined by using surface plasmon resonance in a BIAcore 2000 (Biacore AG, Uppsala, Sweden). In a BIAcore flow cell, approximately 50 resonance units (RU) of biotinylated HD-peptide (250 nM in 1M NaCl and 50 mM NaOH) was coupled to a streptavidin sensor chip, pre-conditioned with three consecutive 1-minute injections of 1 M NaCl in 50 mM NaOH. […] Association was measured under a continuous flow of 5 μl/min with a concentration range from 60 to 100 nM, The kon was determined from a plot of In (dR/dt)/t versus concentration, where R is response and t is time (Karlsson et al., J. Immunol. Methods 145: 229-240 (1991)). The koff was determined from the dissociation part of the sensorgram at the highest concentration of intrabody analyzed by using a flow rate of 20 μl/min. The Kd was calculated as koff/kon.
To characterize the precise binding properties of the intrabody of the invention, further qualitative and quantitative studies of sFv binding to immobilized antigen were conducted in vitro. […] The kinetics of association and dissociation were determined for the C4 sFv antibody in the BIAcore 2000 (FIG. 11B).

[2] = tested on: HD-polyQ-GFP aggregation in COS-7, BHK-21 and HEK 293 cells; test: Quantitation of SDS-insoluble fluorescent aggregates after co-transfection of sFv and HD-polyQ-GFP; assay type: cell-based; conditions: for number of SDS-insoluble fluorescent aggregates: intrabody to antigen plasmid ratio 5:1, HD-polyQ72 or Q104, 48 hours, COS-7, BHK-21, HEK 293, versus empty vector/control
Description: Cells are shown photographed live at 48 hours after transfection by the calcium phosphate method; aggregates appear as intense foci of GFP signals. […] […] Cells were lysed with 2% SDS/2% Triton X-100/50 mM Tris at 48 hours after co-transfection. The number of insoluble, fluorescent aggregates in six or eight random fields was counted. Bars represent means of sextuplicate co-transfections ±SEM.
In particular, it was observed that the formation of pathological HD aggregates in situ display a striking punctate fluorescent morphology with polyglutamine lengths of 40 or more residues (i.e., with Q72 or Q104, but not Q25; FIG. 14). In addition, because these polypeptide aggregates are detergent-insoluble, a method for improved quantitation of residual fluorescent bodies after SDS lysis of transfected cells could be performed (Kazantsev et al., PNAS 96:11404-11409 (1999)). This improved assay allows for polypeptide aggregates to be more accurately enumerated because the plane of focus is eliminated as a variable in the experiment. Accordingly, this assay was utilized for quantitation of polyQ antigen aggregation, alone or in the presence of C4 sFv or control intrabody. COS-7, BHK, and 293 cells were co-transfected with plasmids that express the C4 or a control intrabody and HD-polyQ-eGFP fusions containing Q25, Q72, or Q104.

GST-HD-25Q, GST-HD-42Q = test: Affinity purification of sFv with GST-fusion antigens (glutathione-Sepharose, SDS-PAGE, immunoblot); assay type: binding; conditions: 3 μg sFv with 4 μg antigen, 1 hr room temperature; Coomassie and immunoblot
Description: (§1) About 3 ug of N-HD-C4 sFv was mixed with 4 ug of either GST-DRPLA-Q35 or GST-HD-Q25 or GST-HD-Q42 in PBS (200 μl final volume) and rocked for 1 h at RT. Twenty microliters of glutathione Sepharose 4B beads (50% slurry, pre-washed with PBS) was added and incubated for another 30 min at RT to capture the sFv/GST fusion protein complexes. The beads were harvested by centrifugation at 12,000×g for 10 sec and washed thrice with 1 ml PBS. The complexes were eluted with 10 μl of 50 mM Tris pH 8.0 containing 10 mM reduced glutathione for 10 min at RT. Tubes were then centrifuged at 12,000×g for 1 min and the supernatants containing the soluble complexes were transferred to new tubes, mixed with an equal volume of 2× SDS-sample buffer and heated at 95° C. before being loaded on SDS-PAGE.
(§2) About 3 μg of each clone were incubated in solution for 1 hour at room temperature with 4 ug of either GST-DRPLA-Q35, GST-HD-Q25 or GST-HD-Q42. Then, a 10 μl bed volume of glutathione-Sepharose 4B (Pharmacia) was added to each tube to precipitate the GST-fusion protein/sFv complexes. After 30 min incubation, tubes were centrifuged and the pellets washed 3 times with 1 ml PBS. The complexes were eluted from glutathione-Sepharose beads by addition of 10 mM reduced glutathione to the pellets.
(§3) After centrifugation, supernatants containing the eluted complexes were transferred to new tubes and mixed with an equal volume of 2× SDS-loading buffer. The samples were boiled and the proteins separated on a 12% SDS-PAGE. Protein bands were visualized by Coomassie blue staining, and/or transferred to nitrocellulose membranes in order to detect the sFv molecules by immunoblot.
(§4) The binding specificities of the selected sFv clones were tested by affinity binding to a full range of antigens, as follows: (a) using sample numbers that correspond to the experimental results in FIGS. 9 and 10, about 3 μg of α-Nt-HD-C4 sFv clone 1 (lanes 2-4) or α-Nt-HD-C4 sFv clone 2 (lanes 5-7) were mixed with 4 μg of the following antigens and incubated in solution for 1 hr at room temperature (lanes 2 and 5) GST-DRPLA-35Q, (lanes 3 and 6) GST-HD-25Q, (4 and 7) GST-HD-42Q; (b) a 10 μl bed volume of glutathione-Sepharose 4B (Pharmacia) was added to each tube to bind all GST-containing protein complexes; the beads were washed with 10 mM glutathione solution, which eluted the GST-antigen or the sFv-antigen complex, and these eluates were analyzed by SDS-PAGE. Protein bands were visualized by Coomassie blue staining (FIG. 9) and were also transferred to nitrocellulose membranes in order to detect the sFv molecules by immunoblot blot (FIG. 10).

GST-DRPLA-35Q = biological target: T2, GST-DRPLA-35Q (Homo sapiens, UniProt P54259, DUP487-502); test: as above; assay type: binding; conditions: 3 μg sFv with 4 μg antigen, 1 hr room temperature
T2 construct: made in house; host or cells: E. coli BL21
Description: as §1, §2, §3, §4

Sequence of GST-HD-25Q, GST-HD-42Q (as listed by the source): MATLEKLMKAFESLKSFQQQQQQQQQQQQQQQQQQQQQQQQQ
T2 sequence (P54259 with tags, fused parts or gaps DUP487-502): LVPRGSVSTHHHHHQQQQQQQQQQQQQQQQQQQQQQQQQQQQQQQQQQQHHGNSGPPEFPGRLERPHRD

B1: C4 sFv: human single-chain Fv intrabody from phage display, specific for the 17 N-terminal residues of huntingtin; SEQ ID NO: 6 (protein)
scFv: QVQLQESGGGLVQPGGSLRLSCAASGFTFSSYSMSWVRQAPGKGLEWVAVISYDGSNKYYADSVKGRFTISRDNSKNTLYLQMNSLRAEDTAVYYCARDRYFDLWGRGTLVTVSSGGGGSGGGGSGGGGSQSALTQPASVSGSPGQSITISCTGTSSDIGAYNYVSWYQQYPGKAPKLLIYDVSNRPSGISNRFSGSKSGDTASLTISGLQAEDEADYYCSSFANSGPLFGGGTKVTVL
With B1 the “binding affinity (Ka)” value [1] was 1.3e+08 M⁻¹, the extent of aggregation ([2]; intrabody to antigen plasmid ratio 3:1, HD-polyQ72-eGFP or HD-polyQ104-eGFP) was “qualitative decrease in the extent of aggregation” and the “number of SDS-insoluble fluorescent aggregates” value [2] was “pronounced reduction in aggregation”. The “number of SDS-insoluble fluorescent aggregates” value ([2]; listed as C4) was “significantly reduced the number of aggregates”, the “sFv co-purified with antigens containing the Nt-HD sequence” value (GST-HD-25Q, GST-HD-42Q) was “present at about the same intensity as the other proteins” and the “sFv co-purified with GST-DRPLA-Q35” value (GST-DRPLA-35Q) was “not detected”.
